The values below come from publication PMC2749287.

For series [1], the target named is T1, VDR;RXRα (human;human, UniProt P11473;P19793 1-427;1-462, |). Nature of the series: EMSA. (In general: Mobility shift assays separate free from complexed probe on a gel.)
Series [2] deals with T1, VDR;RXRα. In words: competition.

T1 sequence (P11473 whole entry, chain 1 of 2): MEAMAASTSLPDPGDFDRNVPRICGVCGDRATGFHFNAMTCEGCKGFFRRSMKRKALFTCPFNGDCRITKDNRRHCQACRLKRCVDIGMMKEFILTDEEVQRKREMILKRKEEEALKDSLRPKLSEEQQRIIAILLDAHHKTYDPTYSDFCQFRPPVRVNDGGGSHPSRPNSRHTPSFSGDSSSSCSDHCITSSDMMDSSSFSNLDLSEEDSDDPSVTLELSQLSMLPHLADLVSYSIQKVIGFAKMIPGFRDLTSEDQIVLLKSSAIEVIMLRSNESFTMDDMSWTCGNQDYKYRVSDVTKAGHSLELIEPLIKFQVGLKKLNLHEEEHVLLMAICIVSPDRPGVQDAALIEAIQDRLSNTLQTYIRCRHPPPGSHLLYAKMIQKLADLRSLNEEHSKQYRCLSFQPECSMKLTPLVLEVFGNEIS
T1 sequence (P19793 whole entry, chain 2 of 2): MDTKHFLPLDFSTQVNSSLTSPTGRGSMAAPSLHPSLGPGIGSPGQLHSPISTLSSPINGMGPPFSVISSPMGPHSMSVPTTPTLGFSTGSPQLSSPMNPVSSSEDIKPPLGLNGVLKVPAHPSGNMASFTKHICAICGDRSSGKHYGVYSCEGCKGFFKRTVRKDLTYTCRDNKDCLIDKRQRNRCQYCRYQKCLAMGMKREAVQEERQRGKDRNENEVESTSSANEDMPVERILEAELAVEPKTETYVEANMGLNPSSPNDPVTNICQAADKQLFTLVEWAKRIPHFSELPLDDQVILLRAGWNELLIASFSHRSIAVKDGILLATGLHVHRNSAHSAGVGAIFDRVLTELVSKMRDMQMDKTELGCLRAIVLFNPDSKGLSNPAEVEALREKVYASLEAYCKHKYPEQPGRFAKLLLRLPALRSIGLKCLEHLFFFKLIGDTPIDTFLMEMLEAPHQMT

B1: wild-type VDRE2 probe, hCYP24A1 promoter (dsDNA)
DNA 1: CGAAGCACACCCGGTGAACTCCGGGCTT
DNA 2: AAGCCCGGAGTTCACCGGGTGTGCTTCG
For B1, in the series with VDR;RXRα [1], the binding result is “binds”.

B2: unlabeled wild-type VDRE2 competitor (dsDNA)
DNA 1: CGAAGCACACCCGGTGAACTCCGGGCTT
DNA 2: AAGCCCGGAGTTCACCGGGTGTGCTTCG
With B2, the binding result in the series with VDR;RXRα [2] was “binds”.
